Assay results reported in patent publication US20130195875A1.

Experiments:
[1] = biological target: ADM (human or mouse, not stated for this row); assay: cell-based or functional assay
[2] = biological target: human recombinant adrenomedullin receptor (CRLR+RAMP3) (human)

| Substance | Maximal inhibition of ADM bioactivity (ADM-Bioassay) (%) [1] [%] | EC50 (read off the curve) [2] [nM] |
| --- | --- | --- |
| Non specific mouse IgG (antibody) | 0 | – |
| human adrenomedullin (hADM 1-52) (peptide) | – | 1 |
